Test results as given in patent US20250027068.
Numbering of substitutions follows the chain as printed.

B1: PRT-340 (protein)
chain: MTITSVWTKGVTPPTPEDFRENNEDVLHAPYLANQGWYDITKAFDGKDNLLCGAATAGNMLHWWFDQNKEEIERYLKKHPEKQKIIFNNQELFDVKAAIDTKDSQTNSKLFDYFRDKAFPNLSARQLGVMPDLVLDMFINGYYLNLGKTQSTDVNRPYQDKDKRGGIFDAVFTRGDQTTLLTARHDLKNKGLNEISDLIKQELTEGKALALSHTYANVSINHVINLWGADFDAEGNLEAIYVTDSDANASIGMKKYFVGRNAHGKVAISAKKIEGDNIGAQVLGLFTLSTGQDQWQKLS
B2: PRT-341 (protein)
chain: B1 chain with L92W, D112N, G147P, F257A, R260V, Q294I
B3: PRT-456 (protein)
chain: MITSVWTKGVTPPTDFIKGEDVFHAPYKAGQGWYDITKAFDGGDDLLCGAATAGNMLHWWFDQNKDQIEAYLKEHPEKQKINFNGEQMFDVKEAIDTKDDQTNSELFNYFKEKAFPYLSTKHLGVFPDHVLDMFINGYRLSLTNHGPTPVKEGSKDPRGGIFDAVFTRGDQSKLLTSRHDLKNKTLNEISQLIKQELTEGKALALSHTYANVRINHVINLWGADFDAEGNLEAIYVTDSDSNASIGMKKYFVGVNSAGKVAISAKEIEDDNIGAQVLGLFTLSTGQDIWNQTNLEHHHHHH
B4: PRT-349 (protein)
chain: MSQTEDSESLQRLRDIEDFQAEKKDQNVVYTKWLDGVDVKDHDFRKIVDGNIAYYATPLLNGRGLYDINKDFNRDSDKCAAAVAANMFHYWLDINRDNVDRFLRQNPEKHGIIELPDGQLKLSDFLNTYESDHGYRDKSKLFDFISENFNGPVWTDKLLDNYINGYAYNYKYGRTIEDPTKNTSKINFFKEVFNEKILTNNHSIRNQNELSVLLSEALYTGKAIGLSYGPAGLRHSLGHIISVWGADLDADGNVVAIYVTDSDDKKLTIGDERVGLKRYKISTDDENRLRLTAYEETHNTGGQVRGLWTLDTGKYAWADYFDKTEQTGTDQAEQ
B5: PRT-446 (protein)
chain: MVTSVWTKGVTPPTDFIKGEDVFHAPYKAGQGWYDITKTFNGKDDLLCGAATAGNMLHWWFDQNKDQIEAYLKEHPEKQKINFNGEQMFDVKEAIDTKDDQTNSKLFEYFKEKAFPYLSTKHLGVFPDHVLDMFINGYRLSLTNHGPTPVKEGSKDPRGGIFDAVFTRGDQSKLLTSRHDFKEKTLKEISDLIKQELTEGKALALSHTYANVRINHVINLWGADFDSNGNLEAIYVTDSDSNASIGMKKYFVGVNSAGKVAISAKEIEDDNIGAQVLGLFTLSTGQDIWNQTNLEHHHHHH
B6: PRT-363 (protein)
chain: MSQTEDSESLQRLRDIEDFQAEKEKQNVVYTKWLDGVDVKDHDFRKIVDGNSAYYATPLLNGRGWYDINKDFNRDSDKCAAAVAANMFHYWLDRNRDNVDRFLRQNPEKHGIIELPDGQLKLSDFLNTYESDDGYRDKSKLFDFISENFNGPVWTDKLLDNYINGYAYNSKYGRTIEDPTKNTSKINFFKEVFNEKILTNNHSIRNQNEFSVLLIEALYTGKAIGLSYGPAGLRHGLGHIISVWGADLDADGNVVAIYVTDSDDKKLTIGDERVGLKRYKISTDDEGRLRLTAYEETHNTGGQVRGLWTLDTGKQAWADYFDKTEQTGTDQAEQ
B7: PRT-365 (protein)
chain: B6 chain with E24K, S52E, W65F, S170Y, T175L, F210L, I215S, L233T, G236S, V304I
B8: PRT-372 (protein)
chain: B6 chain with E24K, W65F, S76N, P179S, V304I
B9: PRT-357 (protein)
chain: B6 chain with E147N, S170Y, I215S, G236S
B10: PRT-356 (protein)
chain: B6 chain with W65F, E147N, S170Y, I215S, G236S
B11: PRT-374 (protein)
chain: B6 chain with E24K, S52E, W65F, S76N, S170Y, P179S, F210L, I215S, G236S, V304I
B12: PRT-348 (protein)
chain: B4 chain with L65W, L210F, S215I
B13: PRT-364 (protein)
chain: B6 chain with E24K, S52E, W65F, S170Y, F210L, I215S, G236S, V304I
B14: PRT-371 (protein)
chain: B6 chain with E24K, W65F, S76N, S170Y, P179S, G236S, V304I

Target: pooled human IgG (human IgG1,2,3 and 4)

| Protein | Enzyme Activity Endpoint Assay (purified): Fab′2 [ng/µL] | Enzyme Activity Endpoint Assay (purified): Fc [ng/µL] | Enzyme Activity Endpoint Assay (purified): IgG [ng/µL] | Enzyme Activity Endpoint Assay (purified): scIgG [ng/µL] | Enzyme Activity Endpoint Assay: Fab′2 [ng/µL] | Enzyme Activity Endpoint Assay: Fc [ng/µL] | Enzyme Activity Endpoint Assay: IgG [ng/µL] | Enzyme Activity Endpoint Assay: scIgG [ng/µL] |
| --- | --- | --- | --- | --- | --- | --- | --- | --- |
| B1 | 692 | 374 | 0 | 307 |  |  |  |  |
| B2 | 832 | 199 | 0 | 318 |  |  |  |  |
| B3 |  |  |  |  | 1170 | 497 | 0 | 0 |
| B4 | 677 | 215 | 0 | 286 |  |  |  |  |
| B5 |  |  |  |  | 1130 | 427 | 0 | 0 |
| B6 | 838 | 462 | 0 | 354 |  |  |  |  |
| B7 | 735 | 385 | 0 | 312 |  |  |  |  |
| B8 |  |  |  |  | 0 | 218 | 122 | 560 |
| B9 | 724 | 389 | 0 | 313 |  |  |  |  |
| B10 | 780 | 418 | 0 | 289 |  |  |  |  |
| B11 | 985 | 536 | 0 | 379 |  |  |  |  |
| B12 | 736 | 415 | 0 | 325 |  |  |  |  |
| B13 | 863 | 439 | 0 | 334 |  |  |  |  |
| B14 | 623 | 373 | 0 | 295 |  |  |  |  |
